In patent US20200223906A1 (Adimab, published 2020):
Changes are numbered by the printed parent chain.

B1: ADI-18951 (antibody, V domains shown)
VH: QVQLVQSGGGLVQPGGSLRLSCAASGFAFSDYTMSWVRQAPGKGLEWVSSVSGTGGTSYYADSVNGRFAISRENSKNTLFLQMDSLRAEDTATYYCAKDGLRDVSRVYYIDVWGKGTTVTVSS
VL: QPVLTQPASVSGSPGQSITISCTGTSRDIGSHDSVSWYQQKPGKAPKLIIYAVRNRPSGLSNRFSGSKSGNTASLTISGLQTEDEGDYYCSSYRNGNALGVFGTGTKVTVL
notes: full-length IgG from yeast
B2: ADI-18952 (antibody, V domains shown)
VH: B1 VH with Q6E, D31N, T33A, S58T, K76R, F80Y, A88V, V104L, T117A
VL: B1 VL with P2S, S34Y, K41H, A52G, R54N, A98T, V108L
notes: full-length IgG from yeast
B3: ADI-19010 (antibody, V domains shown)
VH: EVQLVESGGGLVKPGGSLRLSCAASGFTFSSYSMNWVRQAPGKGLEWVSSISSSSSYIYYADSVKGRFTISRDNAKNSLYLQMNSLRAEDTAVYYCARDVQYSGYDSGYYFDYWGQGTLVTVSS
VL: QPVLTQPPSVSGAPGQRVTISCTGSSSNIGAGYDVHWYQQLPGTAPKLLIYGNSNRPSGVPDRFSGSKSGTSASLAITGLQAEDEADYYCQSYDSSLSALYVFGTGTKVTVL
B4: ADI-19016 (antibody, V domains shown)
VH: QVQLVESGGGLVKPGGSLRLSCVASGFTFSSYAMNWVRQAPGKGLDWVSSISAGSNFIDDADSVKGRFTISRDNARNSLFLQMNSLRAEDTAVYYCARIGYSSAHHYQYYMDVWGTGTTVTVSS
VL: B3 VL with P2S, Q40D, S54T, T71A, A76V, S95K, A99G, L100G
B5: ADI-18950 (antibody, V domains shown)
VH: EVQLVESGPRLVRPSETLSLTCTVSGGFIKTSSYYWGWIRQPPGKGLEWIGSIYYAGTTYYNPSLQSRVTMSVDTSNNQFSLKLNSVTAADTAVYYCATAWTFDHWGQGTLVTVSS
VL: EIVLTQSPATLSLSPGERATLSCRASQSLSNYLAWYQQKPGQAPRLLIYDASNRATGIPARFSGSGSGTDFTLTISSLEPEDFAVYYCQLRGHWPPTITFGQGTRLEIK
notes: full-length IgG from yeast
B6: ADI-19008 (antibody, V domains shown)
VH: EVQLVESGGGVVQPGRSLRLSCVASGFSFSAYGMHWVRQVPTKGLEWVAVISYDGRDIYYTDSVKGRFTISRDNSKNMLYLQMNSLRPEDRAVYYCARDPSLGYNNHYFDYWGQGTLVTVSS
VL: EIVLTQSPATLSLSPGETATLSCRASQSVTGNLAWYQQKPGQAPRLLIYAASNRATGIPARFSGSGSGTDFTLTISSLEPEDFAVYFCQQRSNWPPMYSFGQGTKLEIK
B7: ADI-19006 (antibody, V domains shown)
VH: EVQLVESGGGLVKPGESVKLSCAASGFTITDSYMAWIRQSPGKGLEWLAYISSTSLFTDYTDSVKGRFIITRDNAENSLYLQMTSLTPADTGVYFCARAKTSYYFYALDVWGPGTLVTVSS
VL: ETTLTQSPGTLSLSPGERATLSCRASQSVNNNYLAWFQHKPGQAPRLLIYNASNRAAGIPDRFSGSGSGTDFTLTISKLEPGDSAVYYCQRYGNSWPFGQGTKVEIK
B8: ADI-19003 (antibody, V domains shown)
VH: QVQLQESGPGLVKPSETLSLTCSVSGGSITNVNYYWGWIRQPPGKGLEWIGSIYYNGNTYYNPSLQSRVTMSVDTSKNHFSLRLTSVTAADTAVYFCAREGPNWELLNAFDIWGQGTTVTVSS
VL: SYELTQPPSVSVAPGQTARITCGGNNIGSKNVHWYQQKPGQAPVLVVYEDTHRPSGIPERFSGSNSGNTATLTISRVEAGDEADYYCQVWDTSSDHVVFGGGTKLTVL
B9: ADI-18996 (antibody, V domains shown)
VH: QVQLVQSGAEVKRPGASVKVSCKASEYAFTAHYLHWVRQAPDQGLEWMGWISPKSGGTNYAQKFHGRVSMTSDTSISTVYMELSSLTSDDTAVYYCARSSLVGASPNFDFWGQGTLVTVSS
VL: QSVVTQPPSVSAAPGQRVTISCSGSSSNIGNNYVSWYQQLPGSTPKVLIYDNNQRPSGIPDRFSGSKSGTSATLAISGLQTGDEAVYYCGTWDASLSAAMVFGGGTKLTVL
B10: ADI-19002 (antibody, V domains shown)
VH: EVQLVESGPGLVKPSETLSLTCTVSGGSVSGHYWSWIRQFPGKELEWIGHIYYIGTTNYNPSLKSRVIISLDTSKNQLSLKLSSVTAADTAVYYCARQFGYDKNTLSRLDFDYWGQGTLVTVSS
VL: DIQMTQSPSSLSASVRDRVTITCRASQSISSYLNWYQQRPGKAPKLLIYSAFSLHSGVPSRFSGSGSETEFTLTISSLQPDDFATYYCQQSYSIPWTFGQGTKVEIK
B11: ADI-18997 (antibody, V domains shown)
VH: QVQLQQWGAGLLKPSETLSLTCAVSGGYFINDNWSWIRQSPGKGLEWIGEISHSGSTNYNPSLKSRLTISVDTSRQQFSLKLSSVTAADSGVYYCARVHPSYDFGWRFFDFWGQGTLVTVSS
VL: ETTLTQSPATLSVSPGDTATLSCRASQTISSNLAWYQQKPGQPPSLLIYGASNRATGIPDRFRGSGSGTEFTLTISSLQSEDFAVYYCQQYAYWPPYTFGQGTKVEIK
B12: ADI-18888 (antibody, V domains shown)
VH: QVQLVESGGGVVQPGRSLRLSCVASGFSFSMHGMHWVRQAPGKGLEWVTAIWYDGSNKYYADSVKGRFTISRDNSRNTLYLQMNSLRAEDTAVYYCARDHASTPYYMDVWGKGTTVTVSS
VL: ETTLTQSPGTLSLSPGESATLSCRTSQRISSTYLAWYRQKPGQAPRLLMYGASSRATGIPDRFSGSGSGTDFTLTISSLEPEDFALYYCQQYGSFPWTFGQGTKLEIK
notes: full-length IgG from yeast; also called Antibody Number 243; Ab # 243
B13: ADI-18906 (antibody, V domains shown)
VH: B12 VH with Q1E
VL: B12 VL with L105V
notes: full-length IgG from yeast
B14: ADI-19009 (antibody, V domains shown)
VH: QVQLVQSGAEVKRPGSSVKVSCKASGGTFRGYHISWVRQAPGQGLEWMGGIIHLFGTVSYAPKFQGRVTITADASTGTAHMELSSLTSDDTAIYYCARDAYEVWTGSYLPPFDYWGQGTLVTVSS
VL: DIVMTQTPGTLSLSPGERVTLSCRASQTVTSSYLAWYQQKPGQAPRLLIYGAFTRATGIPDRFSGSGSGTDFTLTISRLEPEDFAVYYCQQYGSSFLTFGGGTKLEIK
B15: ADI-19011 (antibody, V domains shown)
VH: EVQLVESGGGVVQPGGSLRLSCAGSGFAFGSFAMHWVRQAPGKGLEWVAVISFDGKNTKYADSVKGRFTTSRDNSRNTLYLQMDSLRGDDTAIYYCATIRGIVAGLCDNWGQGTLVTVSS
VL: QPVLTQSSSDSASLGASVKLTCTLSSGHRNYIIAWHQQQPGKAPRFLMKVEGSGSFTMGSGVPDRFSGSSSGADRYLTISNLQSEDEADYYCEAWDFNTGGVFGGGTQLTVL
B16: ADI-19004 (antibody, V domains shown)
VH: QVQLVQSGAEVKKPGASVKVSCKTSGYTFSHFGVTWIRQAPGQGLEWLGWISAYNGNTDSADKLQGRLTMTTDTSTNTAYMELRSLRSDDTAVYYCARDPPASAAAMLDYWGQGTLVTVSS
VL: DIQMTQSPLSLAVTLGQPASISCRSSQGLEYTDGNTYLSWFQQRPGQSPRRLIYKVSNRDSGVPDRFSGSGAGTDFTLRISRVEAEDVGVYYCMQGTHGRGISFGPGTKVDIK
B17: ADI-19005 (antibody, V domains shown)
VH: QVQLVQSGAEVKKPGASVRVSCKASGYTFTDYFMNWVRQAPGGGLEWMGWINPLSGVTKYAQQFQGSVTMTTDTSITTGYMELRSLRVDDTAVYYCASQSSPYTPGAMGVWGQGTTVTVSS
VL: DIRMTQSPSSLSASVGDRVTITCRTSQSVSGYLSWYQQKPGKAPKLLIYAASNLYSGVPSRFSGSGSGTDFTLTITSLQPEDFATYFCQLNSGALFTFGPGTKVEIK
B18: ADI-19017 (antibody, V domains shown)
VH: B17 VH with S21T
VL: SYELIQLPSVSVSPGQTARITCSGDALPKQYAYWYQQKPGQAPVLVIYKDSERPSGIPERFSGSSSGTTVTLTISGVQAEDEADYYCQSADSSGTYPVVFGGGTKLTVL

How the values were obtained:
[1] = molecular target: RSV F protein of subtype B (18537) on recombinant mKate-RSV virus (Respiratory syncytial virus subtype B …, UniProt P13843 26-574); assay: cell-based or functional assay
[2] = molecular target: RSV F protein of subtype A (strain A2) on recombinant mKate-RSV virus (Respiratory syncytial virus subtype A …, UniProt P03420 26-574); assay: cell-based or functional assay
[3] = molecular target: T1, RSV F subtype B, furin-cleaved ectodomain stabilized in the postfusion conformation (F ΔFP) (Respiratory syncytial virus subtype B); assay: BLI, IgG on AHQ sensor, 100 nM antigen
T1 construct: extracellular domain; Trimeric soluble antigen; also called Postfusion subtype B

[4] = molecular target: T2, RSV F subtype B, furin-cleaved ectodomain stabilized in the prefusion conformation (DS-Cav1) (Respiratory syncytial virus subtype B); assay: BLI, IgG on AHQ sensor, 100 nM antigen
T2 construct: extracellular domain; Trimeric soluble antigen; also called Prefusion subtype B

[5] = molecular target: RSV F protein of subtype A (strain A2) on recombinant mKate-RSV (respiratory syncytial virus subtype A …, UniProt P03420 26-574); assay: cell-based or functional assay
[6] = molecular target: RSV F protein of subtype B (18537) on recombinant mKate-RSV (respiratory syncytial virus subtype B …, UniProt P13843 26-574); assay: cell-based or functional assay

Binder	Neut IC50 (µg/ml) subtype B [1] [µg/mL]	Neut IC50 (µg/ml) subtype A [2] [µg/mL]	Kd [3] [nM]	Kd [4] [nM]	Neut IC50 subtype A [5] [µg/mL]	Neut IC50 subtype B [6] [µg/mL]
B1	> 10	3.4	1.13	5.35	–	–
B2	2.75	1.59	0.633	1.01	–	–
B3	–	–	–	–	> 10	0.65
B4	–	–	–	–	0.052	0.092
B5	> 10	> 10	0.385	4.18	–	–
B6	–	–	–	–	8.29	> 10
B7	–	–	–	–	4.89	5.06
B8	–	–	–	–	0.047	0.125
B9	–	–	–	–	> 10	> 10
B10	–	–	–	–	2.89	4.51
B11	–	–	–	–	> 10	> 10
B12	> 10	> 10	1.16	–	–	–
B13	> 10	> 10	1.1	–	–	–
B14	–	–	–	–	0.062	0.066
B15	–	–	–	–	> 10	6.24
B16	–	–	–	–	0.02	0.128
B17	–	–	–	–	0.041	0.11
B18	–	–	–	–	1.56	0.795
